Results taken from the nanobody polyreactivity screen of Harvey et al. (2022).

Assay: yeast display, Sf9 membrane polyspecificity reagent, FACS + sequencing; frameworks hold sequencing errors
How it was run: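 Genes from sorted yeast were amplified by colony PCR, read by MiSeq 2 × 250 sequencing and filtered on CDR length. These cells carried a synthetic nanobody library in Saccharomyces cerevisiae BJ5465 and were sorted by FACS into low and high (top ~1%) gates on anti-HA and streptavidin fluorescence. Polyreactivity is labelled according to the gate of origin.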

| Sequence | polyreactivity (PSR sort gate) |
| --- | --- |
| QVQLVESGGGLVQAVGSLRLSCAASGFILGGYALGWYRQAPGKERELVAAISFSTVATYYADSVKGRFTNSRDNAKNTVYLQMNSLKPEDTAVYYCAARRLGYYRKVKELDYWGQGTQVTVST | high polyreactivity |
| QVQLVESGGGLVQAGGSLRLSCAASGFTFYSNAMGWYRQAPGKERELGAAITWSTGNTYYADSVKGRFTISRDNAKNTVYLQMNSLKPEDTAVYYCAARSHTGYYPPSYYWGQATQVTVSS | high polyreactivity |
| QVQLVESGGGLVQAGGSLRLSCAASGSIFIYYTMGWYRQAPGKEREFVASISWRGGRTYYADSVKGRFTISRDNAKNTVYLQMNSLKPEETAVYYCAAEQSRGIEFSYYSLYYWGQGTQVTVSS | high polyreactivity |
| QVQLVESGGGLFEEGGSLRISCAASGRIFAPYAMGWYRHAPGKERELVAAISWSDVSTDYAVSVKGRFTISRDNAKNTVYLQMYSLKPEVTAVYYCAAAYAGYRGWYYYWGQVTQVTVSS | high polyreactivity |
| QVQLVESGGGLVQAGGSLRLSCAASGRTFPYYAMGWYRQAPGKERELVAAITWSGGSTYYADSVKGRFTISRDNAKNTVYLQMNSLKPEDTAVYYCAKDYSRWGWNMGYWGQGTQVTVSS | high polyreactivity |
| QVQLVESGGGLVQAGGSLRLSCAASGIIIRNYGMGCYRQAPGKERELVARIRWTGGSTYYADSVKGRFTISRDNAKNTVYLQMNSLKPEDTAVYYCAADIWQYSRIANYHPYDYWGQGTQVTVSS | low polyreactivity |
| QVQLVESGGGLVQAGGSLRLSCAASGFIFASYAMGWYRQAPGKERELVAAITQSGGITYYADSVKGRFTISRDNAKNTVYLQMTSLKPEDTAVYYCNTPLLKRTTRGRERNYWGQGTQVTVSS | low polyreactivity |
| QVQLVESGGGLVQAGGSLRLSCAASGSIFRRNAMGWYRQAPGKEREFVAAITWNGGSTYYADSEKGRFTNSRDNAKNPVYLQRNSLKPEDTAVYYCAARAFYYAGDWYGYWGQGTQVTVSS | high polyreactivity |
| QVQLVESGGGLVQAGGSLRLSCAASGYTFGYNALGWYRQAPGKERELVAAISNGGSTNYADSVKGRFTISRDNAKNTVYLQMNSLKPEDTAVYYCAAASRLHIGYWRYDFWGQGTQVTVSS | low polyreactivity |
| QVQLVESGGVLVQAGGSLRLTCAAYGFSFSTYAMGWYRQAPGKERQLVASIDWSGDSTYYADSVKGRFTISRDNAKNTVYLQMNSLKPEDTAVYYCAADDASYPYIFDSYDYWGQGTQVTVSS | low polyreactivity |
| QVQLVESGGGLVQPGGSLRLSCAASGSIFIGYAMGWYRQAPGKERELVASIRNGGSTNYADSVKGRFTISRDNAKNTVYLQMNSLKPEDTAVYYCAGRYPVFLVSFGFDYWGQGTQVTVSS | low polyreactivity |
| QVQLVESGGGLVQAGGSLPLSCAASGRTFDANAMGWSRQAPGKERELVAAISSDGSTNYADSVKGRFTISRDNAKNTVYLQMNSLKPEDTAVYYCATDGKPLIRYDYDYWGQGTQVTVSW | high polyreactivity |
| QVQLVESGGGLVQAGGSLRLSCAASGFIFRYYAMGWYRQAPGKERELVAAISGSGGGTYYADSVKGRFTISRDNAKNTVYLQMNSLKPEDTAVYYCAAGSTSGYFRYYYWGQGTQVTVSS | high polyreactivity |
| QVQLVESGGGLVQAGGSLRLSCAASGSIFPHYAMGWYRQAPGKERELVAAISSGTSTNYADSVKGRFTISRDNAKNTVYLQMNSLKPEDTAVYYCAADIGVYGERREEEFDYWGQGTQVTVSS | low polyreactivity |
| QVQLVESGGGLVQAGGSLRLSCAASGSTFPYNVMGWYRQAPGKEREFVAAISSSSGSTYYADSVKGRFTISRDNAKNTVYLQMNSLKPEDTAVYYCARRHPRQRQDGKVDYWGQGTQVTVSS | low polyreactivity |
| QVQLVESGGGLVQAGGSLRLSCAASGRIFTHNVMGWYRQAPGKERELVAAISGGGGSTYYADSVKGRFTISRDNAKNTVYLQMNSLKPEDTAVYYWAAVGFGRQGQEDYWGQGTHVTVSS | low polyreactivity |
| QVQLVESGGGLVQAGGSLRLSCAASGRIYDGYAMGWYRQAPGKERELVATISSGGSTYYADSVKGRFTISRDNAKNNVYLQMNSLKPEDTAVYYCAADSWVQFDYWGQGTQVTVSS | low polyreactivity |
| QVQLVESGGGLDQAGGSLRLSCAASGSTFPYYAMGWYRQAPGKERELVARISYRGGRTYYADSVKGRFTISRDNAKNTVYLQMNSLKAEDTAVYYCAADRWVYYHSTRYDYWGQGTQVTVSS | high polyreactivity |
| QVQLEESGGGLVQAGGSLRLSCAASGRILAKYAMGWYRPAPRKEREFVDAISYSGGSTYYADSVKGRFTISRDNAKNNVYLLMNRLKPEYTAVYYCAASSYVLYRTRKMYFWGQGTQVTVSS | high polyreactivity |
| QVQLVESGGGLVQAGGSLRLSCAASGFTFGRYAMGWYRQAPGKERELVAAISWSGTRTYYADSVKGRFTISRDNAKNTVYLQLNSLKPEDTADYYCAAYPPPWAQTGFYTYDYWGQGTQVTVSS | high polyreactivity |
| QVQLVESGGGLVQAGGSLRLSCAASVGWYRQAPGKERELVAAISFSGGSTYYADSVKGRFTISRDNAKNTVYLQMNSLKPEDTAVYYCAAENFWQTKEYDYWGQGTQVTVSS | low polyreactivity |
| QVQLVESGGGLVQAGGSLRLSCAASGFILATNAMGWSRQAPGKERELVAAISYAGGSTNYADSVKGRFTISRDNAKNTVYVPMNSLKPEDTAVYYCNAGGTVIWAWYCPVYSWGHGTQVTVSS | low polyreactivity |

| Sequence | polyreactivity (PSR sort gate) |
| --- | --- |
| QVQLVESGGGLVQAGGSLRLSCAASGFIFGHYVMGWYRQAPGKERELVAAISVGGGRTYYADSVKGRFTISRDNAKNTVYLQMNSLKPEDTAVYYCRSYGYDYWGQGTQVTVSS | high polyreactivity |
| QVQLVESGGGLVQAGGSLRVSCAASGFTFRHNAMGWYRQAPGKERELVAVISSTGTYADSVKGRFTISRDNAKNTVYLQMNSLKPEDTAVYYCAAGSDYGGSYAYDYWGQGTQVTVSS | low polyreactivity |
| QVQLVESGGGLVQAGGSLRLSCAASGRIFRTYAMGWYRPAPGKERELVAAISGSGGRTYYADSVKGRFTISRDNAKNTVYLQMNSLKPEDTAVYYCANYVSIVRYGSTTNYDYWGQGTQVTVSS | high polyreactivity |
| QVQIVESGAGLVQAGGTLRISCAPSGITFTPYAMGWYRQAPGKEWELVATITSDGGSTYYADSVKGRFTISRDNAKNTVYLQKNSLKPEETAVYYCAAADHAWLYGWGYSLDVWYYYWGQGNQVTVSS | low polyreactivity |
| QVQLVESGGGLVQAGGILRLSCAASGFIFVRYAMGWYRQAPGKERELVAAISWRGGSTYYADSVKGRFTISRDNAKNTVYLQMNSLKPEDTAVFYCSAVTWVHRYSRFHPFVAFDYWGQGTQVTVSS | high polyreactivity |
| QDQLVESGGGLVQAGGSLRLSCAASGRTFQYNAMGWDRQARGSERELVAAISSSGGSTYYADSVKGRFTISRDNAKNTVYLQMNSLKPEDTAVYYCNAYSQSWNFYGDGDYWGQGTQVTVSS | low polyreactivity |
| QVQLVESGGGLVQAGGSLRLSCAASGSTFTYYAMGWYRQAPGKERELVADISWDGGSTYYADSVKGRFTFSRDNAKNTVYLQMNSLKPEDTAVYYCATDLVYKYDYWGQGTQVTVSS | low polyreactivity |
| QVLLVESGGGLVQAGGSLRLSCAASGSTFSQYAMGWNRQAPGKERELVAAIDSGSNTKYADSVKGRFTISRDHAKNTVYLQMNSLKPEDTAVYYCAADDSYRSIGGDYWGQGTQVTVSS | low polyreactivity |
| QFHLVESGRGLVQAGGSLRLSCAASGRIFCVNAMGWYRQAPGKERELVADISSGGSTNYADSVKGRFTISRDNAKNTVYLQMNSLKPEDTAFYYCNARFRFRYKFPSRNSWGQGTLVTVSS | high polyreactivity |
| QVQLVESGGGLVQAGGSLRLSCAASGRIFGIYAMGWYRQAPGKERELVAAISFIGGRTYYADSVKGRFTISRDNAKNTVYLQMNSLKPEDTAVYYCAARTVPSSRREYWGQGTQVTVSS | high polyreactivity |
| QVQLVESGGGLVQAGGSLRLSCAASGRTFRVYAMGWYRQAPGKEREFVAAISYSGGRTNYADSVKGRFTISRDNSKNTVYLQMNSLKPEDTAVYYCAARYSWAEGDYWGQGTQVTVSS | low polyreactivity |
| HGQLVESGGGLVQAGGSLRLSCAASGVTFSYYAMGWYRQGPGKDRELVAAITSSAGSTYYADSVKGRFTISRDNAKNTVYLQMNSLKPEDSALYYCNAVYSKLNGGYDYWGQGTQVTVSS | low polyreactivity |
| QVQLVESWGGLVQAGGSLRLSCAASGRIIDRKAMGWYRQAPGKERELVAAISSSGSTNYADSVKGRFTFSRDNAKNTVYLQMISLKPEDTSVYYCAARWRSVLAAGTRPVSFDYWGQGTQVTVSS | low polyreactivity |
| QVQLVESGGGLVQAGGSLRLSCAASGFTFEYNAMGWYRQAPGKERELVAVITYRGGSTYYADSVKGRFTISRDHAKNTVYLQMNSLKPEDTAVYYCAARLSSNYWGLKRWGYGYWGQGTQVTVSS | high polyreactivity |
| QVQLVESGGGLVQAGGSLRLSCAASGLTFTSYAMGWYRQAPGKERELVAAITAGGVSTYYADSEKGRFTISRDNAKNTVYLQMNSLKPEDTAVYYCAVDPPYSNPITINEDYWGQGTQVTVSS | low polyreactivity |
| QVQLVESGGGLVQAGASLRLSCAASGLTFIFYAMGWYRQAPGKERELVAAISVSGGCTYYADSVKGRFTISRDNAKNTVYLQMNSLKPEDTAVYYCAADREHFATYGPHMDYWGQGTQVTVSS | low polyreactivity |
| QVQLVESGGGLVQAGGSLRLSCAASGSTFSRYAMGWYRQAPGKERELVAAITYRGARTYYADSVKGRFTISRDNAKNTVYLQMNSLKPEDTAVYYCNTVPPPYNFRYGYWGQGTQVTVSS | high polyreactivity |
| QVQLVESGGGLVQAGGSLRLSCAASGSIFPYYAMGWYRQAPGKERDLVAAISWSGTSTYYADSLKGRFTISRDNAKNTVYLQMNSLNPEDTAVYYCAASGVGTNHYGYWNESDYWGQGTQVTVSS | low polyreactivity |
| QVQLVESGGGLVQEGGSLRLSCAASGSIFIANAMGWYRQAPGKERELVARITRGGRTNYADSVKGRFTISRDNAKNTVYLQMNSLKPEDTAVYYCAAVYYVGFPHKYDYWGQGTQVTVSS | low polyreactivity |
| QVQLVESGGGLVQAGGSLRLSCAASGTTFPRYAMGWYRQAPGKERELVAAISSGGSTYYADSVKGRFTISRDNAKNTVYLQMNRLKPEDTAVYYCNARRSRSRYDYWGQGTQVTVSS | high polyreactivity |
| QVQLVESGGGLVQAGGSLRLSCAASGFTFVGNAMGWYRQAPGKERELVATITSGGNTKYADSVKGRFTISRDNAKNTVYLQMNILKPEDTAVYYCAADSDSFWGVPSYYWGQGTQVTVSS | low polyreactivity |
